Article PMC6994640

Biological target: CgIgR (native, oyster hemocytes) (Crassostrea gigas (endogenous in oyster hemocytes))
Assay: cross-linking

With “CgIgR (native, oyster hemocytes) (receptor)” the stoichiometry N was 2.
